Test results reported in paper PMC10397247.
One block for each binder: values may come before it.

Tests used:
4H2865-AA = target: T1, 4H2865-AA; assay: two-hybrid library CCmax; details: mean of both orientations;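 also: natural log of median RNA to DNA barcode read ratio; higher means stronger binding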
T1 chain: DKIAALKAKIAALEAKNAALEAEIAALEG

4H3381-AA = target: T2, 4H3381-AA; assay: two-hybrid library CCmax; details: mean of both orientations;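 also: natural log of median RNA to DNA barcode read ratio; higher means stronger binding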
T2 chain: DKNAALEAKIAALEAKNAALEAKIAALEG

4H797-AA = target: T3, 4H797-AA; assay: two-hybrid library CCmax; details: mean of both orientations;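 also: natural log of median RNA to DNA barcode read ratio; higher means stronger binding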
T3 chain: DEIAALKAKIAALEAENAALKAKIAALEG

4H3120-AA = target: T4, 4H3120-AA; assay: two-hybrid library CCmax; details: mean of both orientations;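 also: natural log of median RNA to DNA barcode read ratio; higher means stronger binding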
T4 chain: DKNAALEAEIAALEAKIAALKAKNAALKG

4H3865-AA = target: T5, 4H3865-AA; assay: two-hybrid library CCmax; details: mean of both orientations;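 also: natural log of median RNA to DNA barcode read ratio; higher means stronger binding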
T5 chain: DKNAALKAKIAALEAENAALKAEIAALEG

4H485-AA = target: T6, 4H485-AA; assay: two-hybrid library CCmax; details: mean of both orientations;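 also: natural log of median RNA to DNA barcode read ratio; higher means stronger binding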
T6 chain: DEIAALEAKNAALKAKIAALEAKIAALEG

4H2438-AA = target: T7, 4H2438-AA; assay: two-hybrid library CCmax; details: mean of both orientations
T7 chain: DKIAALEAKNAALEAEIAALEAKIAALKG

4H3753-AA = target: T8, 4H3753-AA; assay: two-hybrid library CCmax; details: mean of both orientations
T8 chain: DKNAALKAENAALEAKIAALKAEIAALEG

4H2253-AA = target: T9, 4H2253-AA; assay: two-hybrid library CCmax; details: mean of both orientations
T9 chain: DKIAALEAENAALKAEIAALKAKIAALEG

4H3130-AA = target: T10, 4H3130-AA; assay: two-hybrid library CCmax; details: mean of both orientations
T10 chain: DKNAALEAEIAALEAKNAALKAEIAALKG

4H536-AA = target: T11, 4H536-AA; assay: two-hybrid library CCmax; details: mean of both orientations
T11 chain: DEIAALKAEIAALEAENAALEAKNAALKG

4H458-AA = target: T12, 4H458-AA; assay: two-hybrid library CCmax; details: mean of both orientations
T12 chain: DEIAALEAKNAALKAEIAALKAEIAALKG

4H930-AA = target: T13, 4H930-AA; assay: two-hybrid library CCmax; details: mean of both orientations
T13 chain: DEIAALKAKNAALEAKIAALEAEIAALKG

4H2698-AA = target: T14, 4H2698-AA; assay: two-hybrid library CCmax; details: mean of both orientations
T14 chain: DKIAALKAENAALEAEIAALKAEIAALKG

4H891-AA = target: T15, 4H891-AA; assay: two-hybrid library CCmax; details: mean of both orientations
T15 chain: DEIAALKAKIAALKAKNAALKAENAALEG

4H570-AA = target: T16, 4H570-AA; assay: two-hybrid library CCmax; details: mean of both orientations
T16 chain: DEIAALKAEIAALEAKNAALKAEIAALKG

4H3395-AA = target: T17, 4H3395-AA; assay: two-hybrid library CCmax; details: mean of both orientations
T17 chain: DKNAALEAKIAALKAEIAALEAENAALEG

4H2389-AA = target: T18, 4H2389-AA; assay: two-hybrid library CCmax; details: mean of both orientations
T18 chain: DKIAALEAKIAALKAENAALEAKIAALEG

4H850-AA = target: T19, 4H850-AA; assay: two-hybrid library CCmax; details: mean of both orientations
T19 chain: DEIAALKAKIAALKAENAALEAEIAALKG

4H2330-AA = target: T20, 4H2330-AA; assay: two-hybrid library CCmax; details: mean of both orientations
T20 chain: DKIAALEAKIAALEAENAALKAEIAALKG

4H3590-AA = target: T21, 4H3590-AA; assay: two-hybrid library CCmax; details: mean of both orientations
T21 chain: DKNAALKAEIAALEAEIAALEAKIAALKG

4H3016-AA = target: T22, 4H3016-AA; assay: two-hybrid library CCmax; details: mean of both orientations
T22 chain: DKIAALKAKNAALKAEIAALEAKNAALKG

4H3697-AA = target: T23, 4H3697-AA; assay: two-hybrid library CCmax; details: mean of both orientations
T23 chain: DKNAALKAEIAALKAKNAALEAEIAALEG

4H745-AA = target: T24, 4H745-AA; assay: two-hybrid library CCmax; details: mean of both orientations
T24 chain: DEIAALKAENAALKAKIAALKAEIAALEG

4H629-AA = target: T25, 4H629-AA; assay: two-hybrid library CCmax; details: mean of both orientations
T25 chain: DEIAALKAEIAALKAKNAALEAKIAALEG

4H2274-AA = target: T26, 4H2274-AA; assay: two-hybrid library CCmax; details: mean of both orientations
T26 chain: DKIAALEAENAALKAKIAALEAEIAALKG

4H3165-AA = target: T27, 4H3165-AA; assay: two-hybrid library CCmax; details: mean of both orientations
T27 chain: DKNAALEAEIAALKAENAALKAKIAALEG

4H310-AA = target: T28, 4H310-AA; assay: two-hybrid library CCmax; details: mean of both orientations
T28 chain: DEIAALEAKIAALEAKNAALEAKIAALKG

4H94-AA = target: T29, 4H94-AA; assay: two-hybrid library CCmax; details: mean of both orientations
T29 chain: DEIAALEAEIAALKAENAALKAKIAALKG

4H3410-AA = target: T30, 4H3410-AA; assay: two-hybrid library CCmax; details: mean of both orientations
T30 chain: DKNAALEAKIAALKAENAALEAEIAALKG

4H2725-AA = target: T31, 4H2725-AA; assay: two-hybrid library CCmax; details: mean of both orientations
T31 chain: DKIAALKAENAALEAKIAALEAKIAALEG

4H909-AA = target: T32, 4H909-AA; assay: two-hybrid library CCmax; details: mean of both orientations
T32 chain: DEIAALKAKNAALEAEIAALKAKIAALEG

4H710-AA = target: T33, 4H710-AA; assay: two-hybrid library CCmax; details: mean of both orientations
T33 chain: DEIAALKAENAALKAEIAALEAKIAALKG

4H3009-AA = target: T34, 4H3009-AA; assay: two-hybrid library CCmax; details: mean of both orientations
T34 chain: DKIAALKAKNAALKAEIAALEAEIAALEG

4H2649-AA = target: T35, 4H2649-AA; assay: two-hybrid library CCmax; details: mean of both orientations
T35 chain: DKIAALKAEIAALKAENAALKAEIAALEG

4H2473-AA = target: T36, 4H2473-AA; assay: two-hybrid library CCmax; details: mean of both orientations
T36 chain: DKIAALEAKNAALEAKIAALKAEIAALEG

4H2162-AA = target: T37, 4H2162-AA; assay: two-hybrid library CCmax
T37 chain: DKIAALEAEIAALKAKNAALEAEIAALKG

4H953-bN = target: T38, 4H953-bN; assay: two-hybrid library CCNG1
T38 chain: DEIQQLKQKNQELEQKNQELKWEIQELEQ

4H968-bN = target: T39, 4H968-bN; assay: two-hybrid library CCNG1
T39 chain: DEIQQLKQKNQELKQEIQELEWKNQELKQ

4H3926-bN = target: T40, 4H3926-bN; assay: two-hybrid library CCNG1
T40 chain: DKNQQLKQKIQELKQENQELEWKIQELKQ

4H72-bH = target: T41, 4H72-bH; assay: two-hybrid library CCNG1
T41 chain: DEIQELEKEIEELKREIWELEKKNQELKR

4H754-bN = target: T42, 4H754-bN; assay: two-hybrid library CCNG1
T42 chain: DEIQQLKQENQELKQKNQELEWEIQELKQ

4H780-bN = target: T43, 4H780-bN; assay: two-hybrid library CCNG1
T43 chain: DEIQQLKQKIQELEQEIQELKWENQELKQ

4H683-bN = target: T44, 4H683-bN; assay: two-hybrid library CCNG1
T44 chain: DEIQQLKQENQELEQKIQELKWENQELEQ

4H855-bN = target: T45, 4H855-bN; assay: two-hybrid library CCNG1
T45 chain: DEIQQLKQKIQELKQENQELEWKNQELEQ

4H918-bN = target: T46, 4H918-bN; assay: two-hybrid library CCNG1
T46 chain: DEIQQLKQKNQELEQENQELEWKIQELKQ

4H457-bN = target: T47, 4H457-bN; assay: two-hybrid library CCNG1
T47 chain: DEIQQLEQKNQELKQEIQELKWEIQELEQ

4H4073-bN = target: T48, 4H4073-bN; assay: two-hybrid library CCNG1
T48 chain: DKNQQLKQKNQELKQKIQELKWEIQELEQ

4H575-bN = target: T49, 4H575-bN; assay: two-hybrid library CCNG1
T49 chain: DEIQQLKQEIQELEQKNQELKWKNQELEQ

4H370-bA = target: T50, 4H370-bA; assay: two-hybrid library CCNG1
T50 chain: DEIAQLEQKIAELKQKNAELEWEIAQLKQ

4H797-bN = target: T51, 4H797-bN; assay: two-hybrid library CCNG1
T51 chain: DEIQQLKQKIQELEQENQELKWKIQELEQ

4H346-bN = target: T52, 4H346-bN; assay: two-hybrid library CCNG1
T52 chain: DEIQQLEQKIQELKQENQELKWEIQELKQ

interaction score (4H2865-AA): -0.262
interaction score (4H3381-AA): -1.58
interaction score (4H797-AA): -1.49
interaction score (4H3120-AA): -1.44
interaction score (4H3865-AA): -1.59
interaction score (4H485-AA): -1.06
interaction score (4H2438-AA): -0.363
interaction score (4H3753-AA): -1.93
interaction score (4H2253-AA): -1.34
interaction score (4H3130-AA): -0.375
interaction score (4H536-AA): -1.2
interaction score (4H458-AA): -0.816
interaction score (4H930-AA): -1.36
interaction score (4H2698-AA): -1.79
interaction score (4H891-AA): -1.78
interaction score (4H570-AA): 0.778
interaction score (4H3395-AA): -0.899
interaction score (4H2389-AA): -0.128
interaction score (4H850-AA): 0.439
interaction score (4H2330-AA): -1.04
interaction score (4H3590-AA): -0.841
interaction score (4H3016-AA): -2.12
interaction score (4H3697-AA): -0.752
interaction score (4H745-AA): -0.859
interaction score (4H629-AA): -1.01
interaction score (4H2274-AA): -0.925
interaction score (4H3165-AA): -0.865
interaction score (4H310-AA): -0.523
interaction score (4H94-AA): -0.0378
interaction score (4H3410-AA): -0.231
interaction score (4H2725-AA): -1.72
interaction score (4H909-AA): -1.18
interaction score (4H710-AA): -1.09
interaction score (4H3009-AA): -1.18
interaction score (4H2649-AA): -0.344
interaction score (4H2473-AA): -1.53
interaction score (4H2162-AA): 1.73
B1: 4H2162-AA (peptide)
chain: DKIAALEAEIAALKAKNAALEAEIAALKG

interaction score (4H953-bN): -0.533
interaction score (4H968-bN): -0.647
interaction score (4H3926-bN): 1.53
interaction score (4H72-bH): 0.0876
interaction score (4H754-bN): -0.573
interaction score (4H780-bN): 0.0007
interaction score (4H683-bN): 0.0158
interaction score (4H855-bN): -0.517
interaction score (4H918-bN): -0.654
interaction score (4H457-bN): -0.931
interaction score (4H4073-bN): -0.58
interaction score (4H575-bN): -0.652
interaction score (4H370-bA): 0.693
interaction score (4H797-bN): -0.125
interaction score (4H346-bN): 1.02
B2: 4H346-bN (peptide)
chain: DEIQQLEQKIQELKQENQELKWEIQELKQ
